The labels stand for the following.
T1: human amylin receptor (human, UniProt P30988 25-474; O60896 24-148, limits assumed)
T1 construct: whole, on cells; Calcitonin receptor plus RAMP-3 gives the amylin 3(a) receptor; membranes of Amylin 3(a)/CRE-luc cells were used; also called hAmylin-R; hAmylinR
T1 sequence (looked up) 1: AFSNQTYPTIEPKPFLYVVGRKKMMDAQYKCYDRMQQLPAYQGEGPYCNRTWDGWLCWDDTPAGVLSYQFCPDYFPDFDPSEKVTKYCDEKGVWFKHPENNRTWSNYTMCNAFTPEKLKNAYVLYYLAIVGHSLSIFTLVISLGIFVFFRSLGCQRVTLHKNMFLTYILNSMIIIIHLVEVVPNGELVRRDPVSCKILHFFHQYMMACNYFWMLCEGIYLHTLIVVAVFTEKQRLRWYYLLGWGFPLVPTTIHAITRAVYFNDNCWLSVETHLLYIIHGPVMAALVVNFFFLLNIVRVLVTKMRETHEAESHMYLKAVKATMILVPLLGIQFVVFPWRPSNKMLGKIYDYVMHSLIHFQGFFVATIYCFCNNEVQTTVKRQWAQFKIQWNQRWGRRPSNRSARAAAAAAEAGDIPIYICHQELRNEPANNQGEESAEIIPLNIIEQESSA
T1 sequence (looked up) 2: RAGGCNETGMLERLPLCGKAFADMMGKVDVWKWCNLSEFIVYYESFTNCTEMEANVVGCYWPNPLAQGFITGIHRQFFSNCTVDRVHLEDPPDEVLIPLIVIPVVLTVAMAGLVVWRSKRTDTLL

B1: N^ε1-[2-[2-[2-[[(4S)-4-carboxy-4-(19-carboxynonadecanoylamino)butanoyl]amino]ethoxy]ethoxy]acetyl]-[Arg17,Pro21,Pro27]-h-amylin (peptide)
peptide: K([AEEA-γGlu-C20 diacid])CNTATCATQRLANFLRHSSPNFGAIPSSTNVGSNTY-NH2
modifications: disulfide 2-7; N-terminus assumed
SMILES: CC[C@H](C)[C@H](NC(=O)[C@H](C)NC(=O)CNC(=O)[C@H](Cc1ccccc1)NC(=O)[C@H](CC(N)=O)NC(=O)[C@@H]1CCCN1C(=O)[C@H](CO)NC(=O)[C@H](CO)NC(=O)[C@H](Cc1c[nH]cn1)NC(=O)[C@H](CCCNC(=N)N)NC(=O)[C@H](CC(C)C)NC(=O)[C@H](Cc1ccccc1)NC(=O)[C@H](CC(N)=O)NC(=O)[C@H](C)NC(=O)[C@H](CC(C)C)NC(=O)[C@H](CCCNC(=N)N)NC(=O)[C@H](CCC(N)=O)NC(=O)[C@@H](NC(=O)[C@H](C)NC(=O)[C@@H]1CSSC[C@H](NC(=O)[C@@H](N)CCCCNC(=O)COCCOCCNC(=O)CC[C@H](NC(=O)CCCCCCCCCCCCCCCCCCC(=O)O)C(=O)O)C(=O)N[C@@H](CC(N)=O)C(=O)N[C@@H]([C@@H](C)O)C(=O)N[C@@H](C)C(=O)N[C@@H]([C@@H](C)O)C(=O)N1)[C@@H](C)O)C(=O)N1CCC[C@H]1C(=O)N[C@@H](CO)C(=O)N[C@@H](CO)C(=O)N[C@H](C(=O)N[C@@H](CC(N)=O)C(=O)N[C@H](C(=O)NCC(=O)N[C@@H](CO)C(=O)N[C@@H](CC(N)=O)C(=O)N[C@H](C(=O)N[C@@H](Cc1ccc(O)cc1)C(N)=O)[C@@H](C)O)C(C)C)[C@@H](C)O
notes: also called 17R, 21P, 27P
B2: N^ε1-[(4S)-4-carboxy-4-[[(4S)-4-carboxy-4-(19-carboxynonadecanoylamino)butanoyl]amino]butanoyl]-[His14,Arg17,Pro21,Pro27]-h-amylin (peptide)
peptide: K([γGlu-γGlu-C20 diacid])CNTATCATQRLAHFLRHSSPNFGAIPSSTNVGSNTY-NH2
modifications: disulfide 2-7; N-terminus assumed
SMILES: CC[C@H](C)[C@H](NC(=O)[C@H](C)NC(=O)CNC(=O)[C@H](Cc1ccccc1)NC(=O)[C@H](CC(N)=O)NC(=O)[C@@H]1CCCN1C(=O)[C@H](CO)NC(=O)[C@H](CO)NC(=O)[C@H](Cc1c[nH]cn1)NC(=O)[C@H](CCCNC(=N)N)NC(=O)[C@H](CC(C)C)NC(=O)[C@H](Cc1ccccc1)NC(=O)[C@H](Cc1c[nH]cn1)NC(=O)[C@H](C)NC(=O)[C@H](CC(C)C)NC(=O)[C@H](CCCNC(=N)N)NC(=O)[C@H](CCC(N)=O)NC(=O)[C@@H](NC(=O)[C@H](C)NC(=O)[C@@H]1CSSC[C@H](NC(=O)[C@@H](N)CCCCNC(=O)CC[C@H](NC(=O)CC[C@H](NC(=O)CCCCCCCCCCCCCCCCCCC(=O)O)C(=O)O)C(=O)O)C(=O)N[C@@H](CC(N)=O)C(=O)N[C@@H]([C@@H](C)O)C(=O)N[C@@H](C)C(=O)N[C@@H]([C@@H](C)O)C(=O)N1)[C@@H](C)O)C(=O)N1CCC[C@H]1C(=O)N[C@@H](CO)C(=O)N[C@@H](CO)C(=O)N[C@H](C(=O)N[C@@H](CC(N)=O)C(=O)N[C@H](C(=O)NCC(=O)N[C@@H](CO)C(=O)N[C@@H](CC(N)=O)C(=O)N[C@H](C(=O)N[C@@H](Cc1ccc(O)cc1)C(N)=O)[C@@H](C)O)C(C)C)[C@@H](C)O
notes: also called 14H, 17R, 21P, 27P
B3: N^ε1-[(4S)--4-carboxy-4-(19-carboxynonadecanoylamino)butanoyl]-[Glu14,Arg17,Pro21,Pro27,Pro37]-h-amylin (peptide)
peptide: K([γGlu-C20 diacid])CNTATCATQRLAEFLRHSSPNFGAIPSSTNVGSNTP-NH2
modifications: disulfide 2-7; N-terminus assumed
SMILES: CC[C@H](C)[C@H](NC(=O)[C@H](C)NC(=O)CNC(=O)[C@H](Cc1ccccc1)NC(=O)[C@H](CC(N)=O)NC(=O)[C@@H]1CCCN1C(=O)[C@H](CO)NC(=O)[C@H](CO)NC(=O)[C@H](Cc1c[nH]cn1)NC(=O)[C@H](CCCNC(=N)N)NC(=O)[C@H](CC(C)C)NC(=O)[C@H](Cc1ccccc1)NC(=O)[C@H](CCC(=O)O)NC(=O)[C@H](C)NC(=O)[C@H](CC(C)C)NC(=O)[C@H](CCCNC(=N)N)NC(=O)[C@H](CCC(N)=O)NC(=O)[C@@H](NC(=O)[C@H](C)NC(=O)[C@@H]1CSSC[C@H](NC(=O)[C@@H](N)CCCCNC(=O)CC[C@H](NC(=O)CCCCCCCCCCCCCCCCCCC(=O)O)C(=O)O)C(=O)N[C@@H](CC(N)=O)C(=O)N[C@@H]([C@@H](C)O)C(=O)N[C@@H](C)C(=O)N[C@@H]([C@@H](C)O)C(=O)N1)[C@@H](C)O)C(=O)N1CCC[C@H]1C(=O)N[C@@H](CO)C(=O)N[C@@H](CO)C(=O)N[C@H](C(=O)N[C@@H](CC(N)=O)C(=O)N[C@H](C(=O)NCC(=O)N[C@@H](CO)C(=O)N[C@@H](CC(N)=O)C(=O)N[C@H](C(=O)N1CCC[C@H]1C(N)=O)[C@@H](C)O)C(C)C)[C@@H](C)O
notes: also called 14E, 17R, 21P, 27P, 37P
B4: N^ε1-[(4S)-4-carboxy-4-[[(4S)-4-carboxy-4-(19-carboxynonadecanoylamino)butanoyl]amino]butanoyl]-[Ser14,Arg17,Pro21,Pro27,Pro34,Glu35]-h-amylin (peptide)
peptide: K([γGlu-γGlu-C20 diacid])CNTATCATQRLASFLRHSSPNFGAIPSSTNVGPETY-NH2
modifications: disulfide 2-7; N-terminus assumed
SMILES: CC[C@H](C)[C@H](NC(=O)[C@H](C)NC(=O)CNC(=O)[C@H](Cc1ccccc1)NC(=O)[C@H](CC(N)=O)NC(=O)[C@@H]1CCCN1C(=O)[C@H](CO)NC(=O)[C@H](CO)NC(=O)[C@H](Cc1c[nH]cn1)NC(=O)[C@H](CCCNC(=N)N)NC(=O)[C@H](CC(C)C)NC(=O)[C@H](Cc1ccccc1)NC(=O)[C@H](CO)NC(=O)[C@H](C)NC(=O)[C@H](CC(C)C)NC(=O)[C@H](CCCNC(=N)N)NC(=O)[C@H](CCC(N)=O)NC(=O)[C@@H](NC(=O)[C@H](C)NC(=O)[C@@H]1CSSC[C@H](NC(=O)[C@@H](N)CCCCNC(=O)CC[C@H](NC(=O)CC[C@H](NC(=O)CCCCCCCCCCCCCCCCCCC(=O)O)C(=O)O)C(=O)O)C(=O)N[C@@H](CC(N)=O)C(=O)N[C@@H]([C@@H](C)O)C(=O)N[C@@H](C)C(=O)N[C@@H]([C@@H](C)O)C(=O)N1)[C@@H](C)O)C(=O)N1CCC[C@H]1C(=O)N[C@@H](CO)C(=O)N[C@@H](CO)C(=O)N[C@H](C(=O)N[C@@H](CC(N)=O)C(=O)N[C@H](C(=O)NCC(=O)N1CCC[C@H]1C(=O)N[C@@H](CCC(=O)O)C(=O)N[C@H](C(=O)N[C@@H](Cc1ccc(O)cc1)C(N)=O)[C@@H](C)O)C(C)C)[C@@H](C)O
notes: also called 14S, 17R, 21P, 27P, 34P, 35E
B5: N^ε1N^ε1-[(4S)-4-carboxy-4-(19-carboxynonadecanoylamino)butanoyl]-[His14,Arg17,Pro21,Pro27,Pro34]-h-amylin (peptide)
peptide: K([γGlu-C20 diacid])CNTATCATQRLAHFLRHSSPNFGAIPSSTNVGPNTY-NH2
modifications: disulfide 2-7; N-terminus assumed
SMILES: CC[C@H](C)[C@H](NC(=O)[C@H](C)NC(=O)CNC(=O)[C@H](Cc1ccccc1)NC(=O)[C@H](CC(N)=O)NC(=O)[C@@H]1CCCN1C(=O)[C@H](CO)NC(=O)[C@H](CO)NC(=O)[C@H](Cc1c[nH]cn1)NC(=O)[C@H](CCCNC(=N)N)NC(=O)[C@H](CC(C)C)NC(=O)[C@H](Cc1ccccc1)NC(=O)[C@H](Cc1c[nH]cn1)NC(=O)[C@H](C)NC(=O)[C@H](CC(C)C)NC(=O)[C@H](CCCNC(=N)N)NC(=O)[C@H](CCC(N)=O)NC(=O)[C@@H](NC(=O)[C@H](C)NC(=O)[C@@H]1CSSC[C@H](NC(=O)[C@@H](N)CCCCNC(=O)CC[C@H](NC(=O)CCCCCCCCCCCCCCCCCCC(=O)O)C(=O)O)C(=O)N[C@@H](CC(N)=O)C(=O)N[C@@H]([C@@H](C)O)C(=O)N[C@@H](C)C(=O)N[C@@H]([C@@H](C)O)C(=O)N1)[C@@H](C)O)C(=O)N1CCC[C@H]1C(=O)N[C@@H](CO)C(=O)N[C@@H](CO)C(=O)N[C@H](C(=O)N[C@@H](CC(N)=O)C(=O)N[C@H](C(=O)NCC(=O)N1CCC[C@H]1C(=O)N[C@@H](CC(N)=O)C(=O)N[C@H](C(=O)N[C@@H](Cc1ccc(O)cc1)C(N)=O)[C@@H](C)O)C(C)C)[C@@H](C)O
notes: also called 14H, 17R, 21P, 27P, 34P
B6: N{Alpha-1}-[(4S)-4-carboxy-4-(19-carboxynonadecanoylamino)butanoyl]-[Glu14,Arg17,Pro21,Pro27,Lys34]-h-amylin (peptide)
peptide: {C20 diacid-γGlu}-KCNTATCATQRLAEFLRHSSPNFGAIPSSTNVGKNTY-NH2
modifications: disulfide 2-7
SMILES: CC[C@H](C)[C@H](NC(=O)[C@H](C)NC(=O)CNC(=O)[C@H](Cc1ccccc1)NC(=O)[C@H](CC(N)=O)NC(=O)[C@@H]1CCCN1C(=O)[C@H](CO)NC(=O)[C@H](CO)NC(=O)[C@H](Cc1c[nH]cn1)NC(=O)[C@H](CCCNC(=N)N)NC(=O)[C@H](CC(C)C)NC(=O)[C@H](Cc1ccccc1)NC(=O)[C@H](CCC(=O)O)NC(=O)[C@H](C)NC(=O)[C@H](CC(C)C)NC(=O)[C@H](CCCNC(=N)N)NC(=O)[C@H](CCC(N)=O)NC(=O)[C@@H](NC(=O)[C@H](C)NC(=O)[C@@H]1CSSC[C@H](NC(=O)[C@H](CCCCN)NC(=O)CC[C@H](NC(=O)CCCCCCCCCCCCCCCCCCC(=O)O)C(=O)O)C(=O)N[C@@H](CC(N)=O)C(=O)N[C@@H]([C@@H](C)O)C(=O)N[C@@H](C)C(=O)N[C@@H]([C@@H](C)O)C(=O)N1)[C@@H](C)O)C(=O)N1CCC[C@H]1C(=O)N[C@@H](CO)C(=O)N[C@@H](CO)C(=O)N[C@H](C(=O)N[C@@H](CC(N)=O)C(=O)N[C@H](C(=O)NCC(=O)N[C@@H](CCCCN)C(=O)N[C@@H](CC(N)=O)C(=O)N[C@H](C(=O)N[C@@H](Cc1ccc(O)cc1)C(N)=O)[C@@H](C)O)C(C)C)[C@@H](C)O
notes: also called 14E, 17R, 21P, 27P, 34K

Numbered stars: 1 amine (or outer) side, 2 acyl side, 3 side chain; on linkers, the order of the positions; unused ones are H or OH. Bridge positions count the residues as written; N and C are the ends. Side chains are listed from the residue outwards. Ends that are not written are not given here. * marks the point of attachment. C20 diacid = O=C(O)CCCCCCCCCCCCCCCCCCC(=O)*; γGlu = O=C(O)[C@H](CCC(=O)[*:2])N[*:1]; AEEA = NCCOCCOCC(=O)O

The assay has as its target T1, human amylin receptor. Nature of the assay: SPA competition binding, displacement of 125I-rat amylin from membranes with human amylin 3(a) receptor (Assay V). The procedure, abridged: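 Cell membranes were prepared by homogenisation in Na-HEPES/EDTA buffer, pH 7.4, and stored at −80° C. They were then coupled to SPA beads at 35 ng/μL final and exposed to compounds in assay buffer containing CaCl2, MgCl₂, OA and Tween20. After 120 min at 25° C, plates were counted and IC₅₀ derived.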
In turn, B1 registered an IC50 of 0.427 nM. That is a sub-nanomolar value.
Under B2 stands 0.179 nM.
Then B3, with 0.142 nM; and B4, with 0.076 nM; and B5, with 0.09 nM.
Under B6 stands 0.403 nM.

The values above are taken from patent US20140087995A1 (published 2014).
